From IntAct's records for PubMed 23142979

Target: DAXX, Q9UER7-1
Sequence (Q9UER7 whole entry): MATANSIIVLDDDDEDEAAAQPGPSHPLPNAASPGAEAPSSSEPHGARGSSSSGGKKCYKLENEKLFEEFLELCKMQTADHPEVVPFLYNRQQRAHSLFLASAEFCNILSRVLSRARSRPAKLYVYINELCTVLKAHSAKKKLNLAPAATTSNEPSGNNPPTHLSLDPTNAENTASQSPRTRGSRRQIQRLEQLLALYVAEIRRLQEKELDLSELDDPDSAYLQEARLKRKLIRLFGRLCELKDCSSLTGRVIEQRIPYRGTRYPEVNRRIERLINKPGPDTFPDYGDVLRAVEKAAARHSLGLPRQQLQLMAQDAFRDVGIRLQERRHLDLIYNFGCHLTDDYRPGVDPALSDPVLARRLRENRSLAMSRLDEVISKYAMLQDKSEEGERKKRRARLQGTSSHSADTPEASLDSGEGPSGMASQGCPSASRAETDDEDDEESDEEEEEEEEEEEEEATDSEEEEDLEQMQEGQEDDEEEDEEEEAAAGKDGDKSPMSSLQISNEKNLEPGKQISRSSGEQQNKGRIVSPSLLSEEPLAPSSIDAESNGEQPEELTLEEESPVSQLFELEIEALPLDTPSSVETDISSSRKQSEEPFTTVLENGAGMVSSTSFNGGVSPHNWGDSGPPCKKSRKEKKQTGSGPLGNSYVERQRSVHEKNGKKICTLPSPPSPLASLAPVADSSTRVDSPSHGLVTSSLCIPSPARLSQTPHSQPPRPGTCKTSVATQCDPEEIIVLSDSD

## Histone H3.1 (Homo sapiens) (from UniProt P68431) S88A
  effect of a mutation on the interaction: increasing interaction strength
